Measured values: patent US20110118447A1

Tests used:
[1] = molecular target: binding partner of C5A (XPA23); assay: Biacore
[2] = molecular target: binding partner of C5A (XPA23); assay: Biacore, K-off
[3] = molecular target: binding partner of C5A (XPA23); assay: Biacore K-off

Binder	fold affinity vs original [1] [fold]	fold difference in affinity vs original [2] [fold]	fold difference in affinity vs original [1] [fold]	fold difference in affinity vs original [3] [fold]
C5A (XPA23) VH F35D (antibody, V domains shown) VH: EVQLLESGGGLVQPGGSLRLSCAASGFTFSKYFMDWVRQAPGKGLEWVSVISPSGGMTRYADSVKGRFTISRDNSKNTLYLQMNSLRAEDTAVYYCARVGYGGNSDYWGQGTLVTVSS VL: DIQMTQSPSSVSASVGDRLTIICRASQDINRWLAWYQQTPGNAPKLLIHSATSLQSGVPSRFSGSGSGTDFTLTINSLQPEDFATYYCQQADSFPLTFGGGTKVEIK	0.06	0.06		
C5A (XPA23) VH V50T (antibody, V domains shown) VH: EVQLLESGGGLVQPGGSLRLSCAASGFTFSKYFMFWVRQAPGKGLEWVSTISPSGGMTRYADSVKGRFTISRDNSKNTLYLQMNSLRAEDTAVYYCARVGYGGNSDYWGQGTLVTVSS VL: DIQMTQSPSSVSASVGDRLTIICRASQDINRWLAWYQQTPGNAPKLLIHSATSLQSGVPSRFSGSGSGTDFTLTINSLQPEDFATYYCQQADSFPLTFGGGTKVEIK		0.03	0.03	
C5A (XPA23) VH Y32P (antibody, V domains shown) VH: EVQLLESGGGLVQPGGSLRLSCAASGFTFSKPFMFWVRQAPGKGLEWVSVISPSGGMTRYADSVKGRFTISRDNSKNTLYLQMNSLRAEDTAVYYCARVGYGGNSDYWGQGTLVTVSS VL: DIQMTQSPSSVSASVGDRLTIICRASQDINRWLAWYQQTPGNAPKLLIHSATSLQSGVPSRFSGSGSGTDFTLTINSLQPEDFATYYCQQADSFPLTFGGGTKVEIK			0.68	0.68
C5A (XPA23) VH F35S (antibody, V domains shown) VH: EVQLLESGGGLVQPGGSLRLSCAASGFTFSKYFMSWVRQAPGKGLEWVSVISPSGGMTRYADSVKGRFTISRDNSKNTLYLQMNSLRAEDTAVYYCARVGYGGNSDYWGQGTLVTVSS VL: DIQMTQSPSSVSASVGDRLTIICRASQDINRWLAWYQQTPGNAPKLLIHSATSLQSGVPSRFSGSGSGTDFTLTINSLQPEDFATYYCQQADSFPLTFGGGTKVEIK	0.09	0.09		
C5A (XPA23) VH F33W (antibody, V domains shown) VH: EVQLLESGGGLVQPGGSLRLSCAASGFTFSKYWMFWVRQAPGKGLEWVSVISPSGGMTRYADSVKGRFTISRDNSKNTLYLQMNSLRAEDTAVYYCARVGYGGNSDYWGQGTLVTVSS VL: DIQMTQSPSSVSASVGDRLTIICRASQDINRWLAWYQQTPGNAPKLLIHSATSLQSGVPSRFSGSGSGTDFTLTINSLQPEDFATYYCQQADSFPLTFGGGTKVEIK	0.79			0.79
C5A (XPA23) VH F35Y (antibody, V domains shown) VH: EVQLLESGGGLVQPGGSLRLSCAASGFTFSKYFMYWVRQAPGKGLEWVSVISPSGGMTRYADSVKGRFTISRDNSKNTLYLQMNSLRAEDTAVYYCARVGYGGNSDYWGQGTLVTVSS VL: DIQMTQSPSSVSASVGDRLTIICRASQDINRWLAWYQQTPGNAPKLLIHSATSLQSGVPSRFSGSGSGTDFTLTINSLQPEDFATYYCQQADSFPLTFGGGTKVEIK	0.85	0.85		
C5A (XPA23) VH F35T (antibody, V domains shown) VH: EVQLLESGGGLVQPGGSLRLSCAASGFTFSKYFMTWVRQAPGKGLEWVSVISPSGGMTRYADSVKGRFTISRDNSKNTLYLQMNSLRAEDTAVYYCARVGYGGNSDYWGQGTLVTVSS VL: DIQMTQSPSSVSASVGDRLTIICRASQDINRWLAWYQQTPGNAPKLLIHSATSLQSGVPSRFSGSGSGTDFTLTINSLQPEDFATYYCQQADSFPLTFGGGTKVEIK		0.74	0.74	
C5A (XPA23) VH Y32V (antibody, V domains shown) VH: EVQLLESGGGLVQPGGSLRLSCAASGFTFSKVFMFWVRQAPGKGLEWVSVISPSGGMTRYADSVKGRFTISRDNSKNTLYLQMNSLRAEDTAVYYCARVGYGGNSDYWGQGTLVTVSS VL: DIQMTQSPSSVSASVGDRLTIICRASQDINRWLAWYQQTPGNAPKLLIHSATSLQSGVPSRFSGSGSGTDFTLTINSLQPEDFATYYCQQADSFPLTFGGGTKVEIK			1.07	1.07
C5A (XPA23) VH F33L (antibody, V domains shown) VH: EVQLLESGGGLVQPGGSLRLSCAASGFTFSKYLMFWVRQAPGKGLEWVSVISPSGGMTRYADSVKGRFTISRDNSKNTLYLQMNSLRAEDTAVYYCARVGYGGNSDYWGQGTLVTVSS VL: DIQMTQSPSSVSASVGDRLTIICRASQDINRWLAWYQQTPGNAPKLLIHSATSLQSGVPSRFSGSGSGTDFTLTINSLQPEDFATYYCQQADSFPLTFGGGTKVEIK			0.88	0.88
C5A (XPA23) VH F33I (antibody, V domains shown) VH: EVQLLESGGGLVQPGGSLRLSCAASGFTFSKYIMFWVRQAPGKGLEWVSVISPSGGMTRYADSVKGRFTISRDNSKNTLYLQMNSLRAEDTAVYYCARVGYGGNSDYWGQGTLVTVSS VL: DIQMTQSPSSVSASVGDRLTIICRASQDINRWLAWYQQTPGNAPKLLIHSATSLQSGVPSRFSGSGSGTDFTLTINSLQPEDFATYYCQQADSFPLTFGGGTKVEIK			0.75	0.75
C5A (XPA23) VH F35K (antibody, V domains shown) VH: EVQLLESGGGLVQPGGSLRLSCAASGFTFSKYFMKWVRQAPGKGLEWVSVISPSGGMTRYADSVKGRFTISRDNSKNTLYLQMNSLRAEDTAVYYCARVGYGGNSDYWGQGTLVTVSS VL: DIQMTQSPSSVSASVGDRLTIICRASQDINRWLAWYQQTPGNAPKLLIHSATSLQSGVPSRFSGSGSGTDFTLTINSLQPEDFATYYCQQADSFPLTFGGGTKVEIK	0.68	0.68		
C5A (XPA23) VH Y32F (antibody, V domains shown) VH: EVQLLESGGGLVQPGGSLRLSCAASGFTFSKFFMFWVRQAPGKGLEWVSVISPSGGMTRYADSVKGRFTISRDNSKNTLYLQMNSLRAEDTAVYYCARVGYGGNSDYWGQGTLVTVSS VL: DIQMTQSPSSVSASVGDRLTIICRASQDINRWLAWYQQTPGNAPKLLIHSATSLQSGVPSRFSGSGSGTDFTLTINSLQPEDFATYYCQQADSFPLTFGGGTKVEIK	0.75			0.75
C5A (XPA23) VH K31W (antibody, V domains shown) VH: EVQLLESGGGLVQPGGSLRLSCAASGFTFSWYFMFWVRQAPGKGLEWVSVISPSGGMTRYADSVKGRFTISRDNSKNTLYLQMNSLRAEDTAVYYCARVGYGGNSDYWGQGTLVTVSS VL: DIQMTQSPSSVSASVGDRLTIICRASQDINRWLAWYQQTPGNAPKLLIHSATSLQSGVPSRFSGSGSGTDFTLTINSLQPEDFATYYCQQADSFPLTFGGGTKVEIK	0.84			0.84
C5A (XPA23) VH Y32L (antibody, V domains shown) VH: EVQLLESGGGLVQPGGSLRLSCAASGFTFSKLFMFWVRQAPGKGLEWVSVISPSGGMTRYADSVKGRFTISRDNSKNTLYLQMNSLRAEDTAVYYCARVGYGGNSDYWGQGTLVTVSS VL: DIQMTQSPSSVSASVGDRLTIICRASQDINRWLAWYQQTPGNAPKLLIHSATSLQSGVPSRFSGSGSGTDFTLTINSLQPEDFATYYCQQADSFPLTFGGGTKVEIK			0.75	0.75
C5A (XPA23) VH F33G (antibody, V domains shown) VH: EVQLLESGGGLVQPGGSLRLSCAASGFTFSKYGMFWVRQAPGKGLEWVSVISPSGGMTRYADSVKGRFTISRDNSKNTLYLQMNSLRAEDTAVYYCARVGYGGNSDYWGQGTLVTVSS VL: DIQMTQSPSSVSASVGDRLTIICRASQDINRWLAWYQQTPGNAPKLLIHSATSLQSGVPSRFSGSGSGTDFTLTINSLQPEDFATYYCQQADSFPLTFGGGTKVEIK			0.76	0.76
C5A (XPA23) VH F33A (antibody, V domains shown) VH: EVQLLESGGGLVQPGGSLRLSCAASGFTFSKYAMFWVRQAPGKGLEWVSVISPSGGMTRYADSVKGRFTISRDNSKNTLYLQMNSLRAEDTAVYYCARVGYGGNSDYWGQGTLVTVSS VL: DIQMTQSPSSVSASVGDRLTIICRASQDINRWLAWYQQTPGNAPKLLIHSATSLQSGVPSRFSGSGSGTDFTLTINSLQPEDFATYYCQQADSFPLTFGGGTKVEIK			0.75	0.75
C5A (XPA23) VH F33V (antibody, V domains shown) VH: EVQLLESGGGLVQPGGSLRLSCAASGFTFSKYVMFWVRQAPGKGLEWVSVISPSGGMTRYADSVKGRFTISRDNSKNTLYLQMNSLRAEDTAVYYCARVGYGGNSDYWGQGTLVTVSS VL: DIQMTQSPSSVSASVGDRLTIICRASQDINRWLAWYQQTPGNAPKLLIHSATSLQSGVPSRFSGSGSGTDFTLTINSLQPEDFATYYCQQADSFPLTFGGGTKVEIK			0.76	0.76
C5A (XPA23) VH F35N (antibody, V domains shown) VH: EVQLLESGGGLVQPGGSLRLSCAASGFTFSKYFMNWVRQAPGKGLEWVSVISPSGGMTRYADSVKGRFTISRDNSKNTLYLQMNSLRAEDTAVYYCARVGYGGNSDYWGQGTLVTVSS VL: DIQMTQSPSSVSASVGDRLTIICRASQDINRWLAWYQQTPGNAPKLLIHSATSLQSGVPSRFSGSGSGTDFTLTINSLQPEDFATYYCQQADSFPLTFGGGTKVEIK	0.86	0.86		
C5A (XPA23) VH Y32G (antibody, V domains shown) VH: EVQLLESGGGLVQPGGSLRLSCAASGFTFSKGFMFWVRQAPGKGLEWVSVISPSGGMTRYADSVKGRFTISRDNSKNTLYLQMNSLRAEDTAVYYCARVGYGGNSDYWGQGTLVTVSS VL: DIQMTQSPSSVSASVGDRLTIICRASQDINRWLAWYQQTPGNAPKLLIHSATSLQSGVPSRFSGSGSGTDFTLTINSLQPEDFATYYCQQADSFPLTFGGGTKVEIK			1	1
C5A (XPA23) VH F33P (antibody, V domains shown) VH: EVQLLESGGGLVQPGGSLRLSCAASGFTFSKYPMFWVRQAPGKGLEWVSVISPSGGMTRYADSVKGRFTISRDNSKNTLYLQMNSLRAEDTAVYYCARVGYGGNSDYWGQGTLVTVSS VL: DIQMTQSPSSVSASVGDRLTIICRASQDINRWLAWYQQTPGNAPKLLIHSATSLQSGVPSRFSGSGSGTDFTLTINSLQPEDFATYYCQQADSFPLTFGGGTKVEIK			0.91	0.91
